Assays:
Assay in all cases: Kinase Profiling Assay
Assay type in all cases: biochemical
Settings in all cases: 100 μM peptide
CK1δ(h) = CK1δ(h) (Homo sapiens, UniProt P48730)
Description: (§1) Every kinase activity measurement was conducted in duplicate.
(§2) In addition to determining the IC50 of the compound, the specificity of MK2 inhibitory peptides was assessed by examining activities of all 266 human kinases available for testing in the Millipore kinase profiling service (Table 1).

PhKγ2(h) = target: T1, PhKγ2(h) (Homo sapiens, UniProt P15735)
T1 sequence (P15735 1-406): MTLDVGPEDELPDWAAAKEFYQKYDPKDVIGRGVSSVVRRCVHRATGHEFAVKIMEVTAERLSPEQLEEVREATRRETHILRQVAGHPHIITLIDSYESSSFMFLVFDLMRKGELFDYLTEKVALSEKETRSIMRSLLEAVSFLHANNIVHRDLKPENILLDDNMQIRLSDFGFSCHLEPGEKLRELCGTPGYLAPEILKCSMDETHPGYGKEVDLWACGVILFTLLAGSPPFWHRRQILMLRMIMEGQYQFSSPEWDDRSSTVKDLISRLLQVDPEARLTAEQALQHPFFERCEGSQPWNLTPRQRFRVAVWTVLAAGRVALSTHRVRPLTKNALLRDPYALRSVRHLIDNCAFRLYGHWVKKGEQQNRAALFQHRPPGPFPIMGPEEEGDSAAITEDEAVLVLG
Description: as §1, §2

NEK3(h) = target: T2, NEK3(h) (Homo sapiens, UniProt P51956)
T2 sequence (P51956 1-506): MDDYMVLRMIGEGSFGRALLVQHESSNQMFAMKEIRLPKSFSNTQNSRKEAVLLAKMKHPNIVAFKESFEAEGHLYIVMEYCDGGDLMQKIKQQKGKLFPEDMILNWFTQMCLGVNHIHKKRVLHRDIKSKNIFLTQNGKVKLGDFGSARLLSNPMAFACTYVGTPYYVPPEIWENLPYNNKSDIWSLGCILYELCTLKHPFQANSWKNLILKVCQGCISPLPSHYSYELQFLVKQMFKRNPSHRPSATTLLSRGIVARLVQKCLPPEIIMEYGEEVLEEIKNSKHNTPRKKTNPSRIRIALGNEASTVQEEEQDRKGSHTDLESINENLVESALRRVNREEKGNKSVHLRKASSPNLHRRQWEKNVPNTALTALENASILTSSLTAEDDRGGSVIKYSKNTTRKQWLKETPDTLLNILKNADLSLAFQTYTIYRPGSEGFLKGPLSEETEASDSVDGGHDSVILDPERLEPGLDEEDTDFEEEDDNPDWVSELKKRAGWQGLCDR
Description: as §1, §2

EphA4(h) = EphA4(h) (Homo sapiens, UniProt P54764)
Sequence of EphA4(h) (P54764 20-986): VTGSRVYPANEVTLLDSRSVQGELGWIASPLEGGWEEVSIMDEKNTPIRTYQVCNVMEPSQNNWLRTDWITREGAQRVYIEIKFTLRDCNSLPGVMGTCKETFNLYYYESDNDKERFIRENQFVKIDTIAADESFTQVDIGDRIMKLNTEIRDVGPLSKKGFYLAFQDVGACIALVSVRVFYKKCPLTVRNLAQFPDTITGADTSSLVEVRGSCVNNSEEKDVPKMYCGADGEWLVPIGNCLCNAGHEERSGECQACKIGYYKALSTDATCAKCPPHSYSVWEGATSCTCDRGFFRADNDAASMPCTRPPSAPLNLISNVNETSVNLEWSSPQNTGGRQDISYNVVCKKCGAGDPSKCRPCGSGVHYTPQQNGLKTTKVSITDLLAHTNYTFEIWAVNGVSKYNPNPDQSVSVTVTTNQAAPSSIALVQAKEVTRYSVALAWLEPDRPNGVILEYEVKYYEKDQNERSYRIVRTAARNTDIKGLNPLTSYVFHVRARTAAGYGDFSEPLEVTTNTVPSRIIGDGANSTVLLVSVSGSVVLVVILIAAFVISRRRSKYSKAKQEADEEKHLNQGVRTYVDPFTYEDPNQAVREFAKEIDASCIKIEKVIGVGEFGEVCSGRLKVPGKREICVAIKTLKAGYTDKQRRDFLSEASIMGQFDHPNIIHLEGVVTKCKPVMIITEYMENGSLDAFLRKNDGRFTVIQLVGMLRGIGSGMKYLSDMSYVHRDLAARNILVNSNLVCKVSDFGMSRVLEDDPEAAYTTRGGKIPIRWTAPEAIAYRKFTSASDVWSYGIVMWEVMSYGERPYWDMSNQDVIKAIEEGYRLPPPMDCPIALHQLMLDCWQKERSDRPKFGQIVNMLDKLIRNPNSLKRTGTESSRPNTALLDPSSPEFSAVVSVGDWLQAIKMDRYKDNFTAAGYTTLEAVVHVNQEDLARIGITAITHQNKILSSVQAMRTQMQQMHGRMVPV
Description: as §1, §2

ErbB4(h) = ErbB4(h) (Homo sapiens, UniProt Q15303)
Sequence of ErbB4(h) (Q15303 26-1308): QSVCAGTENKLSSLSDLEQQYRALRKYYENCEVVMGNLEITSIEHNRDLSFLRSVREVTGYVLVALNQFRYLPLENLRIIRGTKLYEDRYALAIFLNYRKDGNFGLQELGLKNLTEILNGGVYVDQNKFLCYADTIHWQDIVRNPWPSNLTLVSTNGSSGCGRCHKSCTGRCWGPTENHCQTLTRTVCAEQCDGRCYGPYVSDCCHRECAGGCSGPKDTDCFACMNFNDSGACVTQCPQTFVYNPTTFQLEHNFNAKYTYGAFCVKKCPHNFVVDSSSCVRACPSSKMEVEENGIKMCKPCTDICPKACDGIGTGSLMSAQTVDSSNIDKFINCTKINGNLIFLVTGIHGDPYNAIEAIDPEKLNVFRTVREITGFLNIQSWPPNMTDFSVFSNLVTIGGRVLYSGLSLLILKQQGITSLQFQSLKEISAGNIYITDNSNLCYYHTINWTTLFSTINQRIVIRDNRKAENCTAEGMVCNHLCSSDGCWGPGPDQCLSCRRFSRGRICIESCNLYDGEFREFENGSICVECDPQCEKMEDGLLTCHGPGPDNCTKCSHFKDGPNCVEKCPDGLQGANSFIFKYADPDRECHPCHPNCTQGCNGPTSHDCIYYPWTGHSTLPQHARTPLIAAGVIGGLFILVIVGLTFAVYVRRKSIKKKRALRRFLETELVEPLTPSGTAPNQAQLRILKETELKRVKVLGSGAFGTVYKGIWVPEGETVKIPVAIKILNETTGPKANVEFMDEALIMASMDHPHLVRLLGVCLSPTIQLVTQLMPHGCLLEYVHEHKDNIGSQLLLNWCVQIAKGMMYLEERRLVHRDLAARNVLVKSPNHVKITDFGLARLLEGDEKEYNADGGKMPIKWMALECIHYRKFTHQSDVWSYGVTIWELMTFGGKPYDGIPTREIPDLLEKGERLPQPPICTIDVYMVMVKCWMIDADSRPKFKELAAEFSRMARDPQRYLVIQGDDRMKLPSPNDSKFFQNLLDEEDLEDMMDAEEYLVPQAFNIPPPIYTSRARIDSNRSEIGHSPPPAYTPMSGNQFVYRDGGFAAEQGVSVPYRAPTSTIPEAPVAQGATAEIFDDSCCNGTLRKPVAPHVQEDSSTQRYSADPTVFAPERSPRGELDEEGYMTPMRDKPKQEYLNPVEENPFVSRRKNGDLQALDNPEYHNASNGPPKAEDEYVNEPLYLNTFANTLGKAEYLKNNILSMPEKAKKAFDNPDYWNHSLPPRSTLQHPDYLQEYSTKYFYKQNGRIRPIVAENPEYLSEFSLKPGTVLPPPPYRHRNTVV
Description: as §1, §2

Mer(h) = target: T3, Mer(h) (Homo sapiens, UniProt Q12866)
T3 sequence (Q12866 21-999): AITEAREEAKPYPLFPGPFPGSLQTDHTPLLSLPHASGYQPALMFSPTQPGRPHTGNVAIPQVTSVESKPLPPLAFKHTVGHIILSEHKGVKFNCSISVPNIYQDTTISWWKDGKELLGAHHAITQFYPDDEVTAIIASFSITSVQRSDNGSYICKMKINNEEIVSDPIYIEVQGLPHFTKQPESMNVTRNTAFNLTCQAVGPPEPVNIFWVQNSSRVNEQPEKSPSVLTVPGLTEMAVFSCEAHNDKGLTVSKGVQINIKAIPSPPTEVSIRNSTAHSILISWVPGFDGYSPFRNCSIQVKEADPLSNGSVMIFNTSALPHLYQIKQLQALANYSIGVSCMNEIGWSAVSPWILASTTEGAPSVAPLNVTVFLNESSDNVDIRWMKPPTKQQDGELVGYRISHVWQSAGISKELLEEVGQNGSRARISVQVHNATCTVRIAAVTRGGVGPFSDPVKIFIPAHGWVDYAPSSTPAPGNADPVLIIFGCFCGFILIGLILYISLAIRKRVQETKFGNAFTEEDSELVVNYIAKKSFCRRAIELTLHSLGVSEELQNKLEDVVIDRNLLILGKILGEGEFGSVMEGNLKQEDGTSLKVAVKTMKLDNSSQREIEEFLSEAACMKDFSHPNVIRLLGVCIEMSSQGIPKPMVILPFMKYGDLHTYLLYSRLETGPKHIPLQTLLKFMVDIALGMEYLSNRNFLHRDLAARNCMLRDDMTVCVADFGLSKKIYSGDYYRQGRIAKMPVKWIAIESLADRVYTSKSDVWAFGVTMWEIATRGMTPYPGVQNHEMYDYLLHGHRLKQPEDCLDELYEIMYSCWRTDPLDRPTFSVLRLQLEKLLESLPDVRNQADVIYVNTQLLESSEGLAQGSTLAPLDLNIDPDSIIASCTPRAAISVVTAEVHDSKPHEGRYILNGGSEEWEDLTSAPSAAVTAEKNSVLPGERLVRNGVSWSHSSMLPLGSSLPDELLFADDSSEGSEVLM
Description: as §1, §2

Syk(h) = Syk(h) (Homo sapiens, UniProt P43405)
Description: as §1, §2

Ron(h) = target: T4, Ron(h) (Homo sapiens, UniProt Q04912)
T4 construct: purchased Millipore (IC50 Profiler Express service)
Description: as §1, §2

MRCKβ(h) = MRCKβ(h) (Homo sapiens, UniProt Q9Y5S2)
Sequence of MRCKβ(h) (Q9Y5S2 whole entry): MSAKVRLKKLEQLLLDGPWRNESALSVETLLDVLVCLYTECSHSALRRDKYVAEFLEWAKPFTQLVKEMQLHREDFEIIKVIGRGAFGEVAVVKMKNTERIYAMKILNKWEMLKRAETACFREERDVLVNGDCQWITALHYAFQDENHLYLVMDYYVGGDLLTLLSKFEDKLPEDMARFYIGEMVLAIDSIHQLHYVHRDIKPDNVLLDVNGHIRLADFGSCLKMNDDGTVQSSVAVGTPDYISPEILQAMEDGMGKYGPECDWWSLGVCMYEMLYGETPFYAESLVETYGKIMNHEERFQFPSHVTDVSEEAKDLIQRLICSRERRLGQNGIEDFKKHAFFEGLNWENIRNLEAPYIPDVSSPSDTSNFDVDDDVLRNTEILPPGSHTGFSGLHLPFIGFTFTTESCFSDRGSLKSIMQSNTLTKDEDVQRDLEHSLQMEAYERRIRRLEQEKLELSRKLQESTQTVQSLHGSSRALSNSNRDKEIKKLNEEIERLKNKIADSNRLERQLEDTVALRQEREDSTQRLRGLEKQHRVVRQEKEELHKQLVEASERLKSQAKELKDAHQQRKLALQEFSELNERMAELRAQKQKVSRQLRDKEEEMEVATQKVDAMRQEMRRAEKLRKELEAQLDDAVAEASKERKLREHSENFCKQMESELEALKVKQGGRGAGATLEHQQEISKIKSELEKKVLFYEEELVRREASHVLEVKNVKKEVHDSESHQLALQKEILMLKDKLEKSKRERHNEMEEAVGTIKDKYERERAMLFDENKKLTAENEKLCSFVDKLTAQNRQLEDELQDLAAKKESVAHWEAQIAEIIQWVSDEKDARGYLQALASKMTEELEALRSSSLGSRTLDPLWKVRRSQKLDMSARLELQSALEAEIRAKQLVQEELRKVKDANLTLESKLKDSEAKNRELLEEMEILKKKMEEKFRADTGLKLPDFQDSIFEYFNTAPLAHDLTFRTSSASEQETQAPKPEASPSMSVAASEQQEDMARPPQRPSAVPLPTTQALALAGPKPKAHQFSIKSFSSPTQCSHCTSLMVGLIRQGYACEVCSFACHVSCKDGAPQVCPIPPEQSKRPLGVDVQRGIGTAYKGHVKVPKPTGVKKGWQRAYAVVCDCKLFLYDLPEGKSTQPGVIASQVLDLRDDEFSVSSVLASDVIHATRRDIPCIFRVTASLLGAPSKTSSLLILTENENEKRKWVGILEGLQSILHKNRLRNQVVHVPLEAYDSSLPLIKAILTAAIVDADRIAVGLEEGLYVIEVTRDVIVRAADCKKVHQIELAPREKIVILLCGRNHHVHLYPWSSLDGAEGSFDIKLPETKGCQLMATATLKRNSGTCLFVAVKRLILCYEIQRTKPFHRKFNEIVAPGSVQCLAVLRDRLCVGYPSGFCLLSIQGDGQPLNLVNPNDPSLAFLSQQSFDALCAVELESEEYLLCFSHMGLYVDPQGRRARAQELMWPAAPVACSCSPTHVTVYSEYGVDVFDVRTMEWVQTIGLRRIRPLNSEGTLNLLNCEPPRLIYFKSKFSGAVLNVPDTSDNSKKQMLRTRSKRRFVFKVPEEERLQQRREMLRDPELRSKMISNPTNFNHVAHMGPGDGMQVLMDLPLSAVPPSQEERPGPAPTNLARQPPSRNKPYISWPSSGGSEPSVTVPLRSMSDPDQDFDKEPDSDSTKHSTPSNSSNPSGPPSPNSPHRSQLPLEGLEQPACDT
Description: as §1, §2

FGFR1(V561M)(h) = FGFR1(V561M)(h) (Homo sapiens, UniProt P11362, V561M)
Description: as §1, §2

EGFR(L858R)(h) = EGFR(L858R)(h) (Homo sapiens, UniProt P00533, L858R)
Description: as §1, §2

Sequence of CK1δ(h) (P48730 whole entry): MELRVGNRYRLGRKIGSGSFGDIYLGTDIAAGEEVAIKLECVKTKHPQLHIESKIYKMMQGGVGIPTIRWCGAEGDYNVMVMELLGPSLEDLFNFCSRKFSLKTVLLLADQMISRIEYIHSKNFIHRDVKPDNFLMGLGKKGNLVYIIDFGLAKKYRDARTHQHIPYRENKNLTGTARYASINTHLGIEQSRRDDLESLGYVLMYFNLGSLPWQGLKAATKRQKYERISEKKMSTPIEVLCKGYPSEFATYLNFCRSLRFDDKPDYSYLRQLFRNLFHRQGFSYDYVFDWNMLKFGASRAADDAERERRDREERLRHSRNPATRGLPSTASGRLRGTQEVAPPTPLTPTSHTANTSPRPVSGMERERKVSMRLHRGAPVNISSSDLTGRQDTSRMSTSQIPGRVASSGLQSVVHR

Sequence	CK1δ(h) % activity (CK1δ(h))	PhKγ2(h) % activity (PhKγ2(h))	NEK3(h) % activity (NEK3(h))	EphA4(h) % activity (EphA4(h))	ErbB4(h) % activity (ErbB4(h))	Mer(h) % activity (Mer(h))	Syk(h) % activity (Syk(h))	Ron(h) % activity (Ron(h))	MRCKβ(h) % activity (MRCKβ(h))	FGFR1(V561M)(h) % activity (FGFR1(V561M)(h))	EGFR(L858R)(h) % activity (EGFR(L858R)(h))
FAKLAARLYRKALARQLGVAA [MMI-0300]	92%	46%	92%	88%	40%	52%	24%	93%	83%	74%	–
KAFAKLAARLYRKALARQLGVAA [MMI-0400]	93%	38%	85%	65%	0%	50%	9%	79%	71%	74%	52%
YARAAARQARAKALNRQLGVA (Mammalian) [MMI-0200]	92%	86%	100%	127%	82%	90%	36%	120%	–	72%	120%
HRRIKAWLKKIKALARQLGVAA (Mammalian) [MMI-0500]	78%	16%	20%	48%	2%	17%	5%	46%	−10%	–	26%
